Among the data in patent US10040829B2 are NF/NT, Mean (fluorescent cells out of 77 cells) and NF/NT, Mean (fluorescent cells out of 57 cells) values, retold here.

In one test the target is hASCT1 receptor (human) (UniProt P43007). Nature of the test: in vivo binding in SCID mice grafted with XChASCT1 cells; anti-RGS His and anti-mouse FITC, IF reading.
In test [1] the target is hASCT2 receptor (type 2 sodium-dependant neutral amino acid receptor-transporter) (human) (UniProt Q15758). Nature of the test: in vivo binding in SCID mice grafted with XChASCT2 cells; anti-RGS His and anti-mouse FITC, IF reading.

As for “soluble HERV-W Env protein of Example 7 (293T cells transfected with the plasmid 460, envelope-spacer-His6)”, the NF/NT, Mean (fluorescent cells out of 77 cells) with hASCT1 receptor (human) came to 24. The substance further came in with an NF/NT, Mean (fluorescent cells out of 57 cells) in test [1] of 23.
